Here are results for one substance from PMC5916551.

This assay addresses Transforming growth factor β1 (TGFβ1) (human) (UniProt P01137). Nature of the assay: SPR. On the technique in general: In SPR one partner is held on a chip, and binding of the other changes the refractive index at the surface.
UniProt P01137, sequence (P01137 279-390): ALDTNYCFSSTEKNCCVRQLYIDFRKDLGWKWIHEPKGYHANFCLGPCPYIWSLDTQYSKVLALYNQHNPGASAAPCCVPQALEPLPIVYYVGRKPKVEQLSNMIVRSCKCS

The term Kd denotes the equilibrium constant for the complex coming apart. In turn, Metelimumab (CAT192 IgG4) (antibody) yielded a Kd of 139 nM.
